In patent US20050048070A1 (published 2005):

What was measured:
[1] = target: T1, K8(1-85)/K18(1-72) heterotypic complex (human, UniProt P05787 2-86; P05783 2-73); experiment: heterotypic association Western blot
T1 construct: Heterotypic complex of two GST fusion proteins; not shown: glutathione S-transferase (GST) fusion partner, modified pGEX-2T vector
T1 chain 1: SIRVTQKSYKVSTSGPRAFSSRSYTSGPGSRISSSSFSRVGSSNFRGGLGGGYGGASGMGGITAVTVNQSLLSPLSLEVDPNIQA
T1 chain 2: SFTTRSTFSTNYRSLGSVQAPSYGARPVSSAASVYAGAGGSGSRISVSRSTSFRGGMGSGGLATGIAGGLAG

bovine serum albumin = target: T2, bovine serum albumin (bovine, UniProt P02769 25-607); experiment: ELISA on coated antigens (data not shown)
T2 construct: Irrelevant antigen in the ELISA; also called BSA

K8 (1-352) = target: T3, K8 (1-352); experiment: Western blot of SDS-PAGE-separated K8 GST fusion proteins, stained with COU-1 alone
T3 construct: not shown: N-terminal GST and its linker (modified pGEX-2T)
T3 chain: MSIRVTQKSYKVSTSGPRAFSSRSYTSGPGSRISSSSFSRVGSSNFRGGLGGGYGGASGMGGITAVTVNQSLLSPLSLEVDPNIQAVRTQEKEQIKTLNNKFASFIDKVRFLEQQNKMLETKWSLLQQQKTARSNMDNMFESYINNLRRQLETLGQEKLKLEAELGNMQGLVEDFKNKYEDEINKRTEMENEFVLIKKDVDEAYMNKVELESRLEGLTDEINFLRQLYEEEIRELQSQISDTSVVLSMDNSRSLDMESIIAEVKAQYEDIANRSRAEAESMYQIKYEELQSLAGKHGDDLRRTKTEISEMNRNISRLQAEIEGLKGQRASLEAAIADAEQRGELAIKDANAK

K8 (1-403) = target: T4, K8 (1-403); experiment: as above
T4 construct: not shown: N-terminal GST and its linker (modified pGEX-2T)
T4 chain: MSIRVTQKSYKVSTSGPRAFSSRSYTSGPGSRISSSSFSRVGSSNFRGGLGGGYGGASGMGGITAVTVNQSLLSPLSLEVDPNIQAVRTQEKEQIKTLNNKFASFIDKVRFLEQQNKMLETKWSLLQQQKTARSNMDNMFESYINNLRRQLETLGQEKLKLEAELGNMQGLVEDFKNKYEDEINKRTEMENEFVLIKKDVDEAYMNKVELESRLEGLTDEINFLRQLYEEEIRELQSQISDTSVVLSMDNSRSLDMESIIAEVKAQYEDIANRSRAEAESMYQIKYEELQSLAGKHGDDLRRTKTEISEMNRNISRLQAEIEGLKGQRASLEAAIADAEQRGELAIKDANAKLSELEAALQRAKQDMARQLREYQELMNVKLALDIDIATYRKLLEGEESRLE

K8 (1-85) = target: T5, K8 (1-85); experiment: as above
T5 construct: also called K8(1-85) GST fusion protein; not shown: N-terminal GST carrier (modified pGEX-2T) and its linker
T5 chain: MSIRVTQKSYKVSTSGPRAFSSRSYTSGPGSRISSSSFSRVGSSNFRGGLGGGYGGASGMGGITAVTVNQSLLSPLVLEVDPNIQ

[2] = target: T6, recombinant intact K8 (GST fusion protein) (human, UniProt P05787 2-483); experiment: as above
T6 construct: Alone, not complexed with K18; GST placed first as in pGEX vectors; also called full length K8; cytokeratin 8; not shown: glutathione S-transferase (GST) fusion partner, modified pGEX-2T vector
T6 chain: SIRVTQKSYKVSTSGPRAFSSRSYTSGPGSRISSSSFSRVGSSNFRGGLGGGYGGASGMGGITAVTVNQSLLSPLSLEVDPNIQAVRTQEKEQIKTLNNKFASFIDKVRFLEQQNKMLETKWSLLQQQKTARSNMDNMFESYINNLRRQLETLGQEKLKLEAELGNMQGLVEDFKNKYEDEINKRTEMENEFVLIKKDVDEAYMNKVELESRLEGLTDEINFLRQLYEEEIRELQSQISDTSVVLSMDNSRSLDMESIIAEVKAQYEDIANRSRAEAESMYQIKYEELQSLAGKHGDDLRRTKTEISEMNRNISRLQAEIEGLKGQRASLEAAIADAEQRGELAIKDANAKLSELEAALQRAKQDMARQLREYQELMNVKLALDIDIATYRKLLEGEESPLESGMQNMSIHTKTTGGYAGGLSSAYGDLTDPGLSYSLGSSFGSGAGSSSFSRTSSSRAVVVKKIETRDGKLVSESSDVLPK

[3] = target: T7, intact K8, native (band 1 of cytokeratin purified from colon cancer tissue; K8 in fixed cancer cells) (human, UniProt P05787 2-483, N-terminally blocked); experiment: strips of a PVDF blot of SDS-PAGE-separated cytokeratin purified from colon cancer tissue
T7 construct: Natural protein, no tag; also called normal K8; cytokeratin 8
T7 chain: T6 chain

[4] = target: T8, intact K18, native (band 3 of cytokeratin purified from colon cancer tissue; K18 in fixed cancer cells) (human, UniProt P05783 2-430, acetylated serine at its N-terminus); experiment: as above
T8 construct: Natural protein, no tag; also called normal K18; cytokeratin 18
T8 sequence: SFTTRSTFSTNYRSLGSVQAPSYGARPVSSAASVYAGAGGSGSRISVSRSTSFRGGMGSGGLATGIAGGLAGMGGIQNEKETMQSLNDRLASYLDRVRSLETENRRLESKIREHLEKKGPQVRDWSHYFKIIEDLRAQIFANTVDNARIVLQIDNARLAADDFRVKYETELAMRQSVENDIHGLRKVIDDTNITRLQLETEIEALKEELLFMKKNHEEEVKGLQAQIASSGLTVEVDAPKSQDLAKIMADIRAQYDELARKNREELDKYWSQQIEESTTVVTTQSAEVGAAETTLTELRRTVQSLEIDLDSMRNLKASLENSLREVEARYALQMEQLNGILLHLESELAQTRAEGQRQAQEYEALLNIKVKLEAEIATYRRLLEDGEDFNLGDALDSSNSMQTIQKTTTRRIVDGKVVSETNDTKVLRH

T2 sequence (P02769 25-607 limits assumed): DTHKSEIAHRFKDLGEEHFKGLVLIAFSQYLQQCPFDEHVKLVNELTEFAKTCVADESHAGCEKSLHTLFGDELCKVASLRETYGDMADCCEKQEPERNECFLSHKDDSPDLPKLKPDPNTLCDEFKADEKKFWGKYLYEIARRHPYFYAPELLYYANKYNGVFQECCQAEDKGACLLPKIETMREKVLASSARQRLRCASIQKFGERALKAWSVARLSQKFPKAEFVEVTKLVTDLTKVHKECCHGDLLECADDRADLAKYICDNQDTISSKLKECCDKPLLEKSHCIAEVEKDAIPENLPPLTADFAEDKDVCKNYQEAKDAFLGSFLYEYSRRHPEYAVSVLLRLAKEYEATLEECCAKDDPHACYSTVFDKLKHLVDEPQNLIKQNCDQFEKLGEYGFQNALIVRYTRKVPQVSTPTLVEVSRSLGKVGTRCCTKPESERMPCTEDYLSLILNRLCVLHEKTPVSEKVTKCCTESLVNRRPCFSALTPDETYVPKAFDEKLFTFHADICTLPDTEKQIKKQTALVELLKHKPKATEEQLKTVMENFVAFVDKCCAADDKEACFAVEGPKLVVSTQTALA

B1: human monoclonal IgM antibody COU-1 (antibody, V domains shown)
VH: GAEVKKPGASVKVSCKASDYTFSSYYMHWVRQAPGQGLEWMGIINPSGGSTSYAQKFQGRVTMTRDTSTNTVYMELSSLRSEDTAVYYCARDQVVVAATLSNYGMDVWGQGTTVTVSS
VL: ELTQSPGTLSLSPGERATLSCRASQSVSSSYLAWYQQKPGQAPRLLIYDASNRATGIPARFSGSGSGTDFTLTISSLEPEDFAVYYCQQGTNWGIAFGQGTRLDIKR
notes: Human IgM with kappa light chain, secreted by hybridoma B9165 (ECACC 87040201), purified from culture supernatant; also called HMab COU-1; HuMab COU-1
binding result [1]: no binding (tested: COU-1 5 µg/ml)
binding result (bovine serum albumin): no binding
binding result (K8 (1-352)): no binding (tested: 5 µg/ml COU-1 (P-0279))
binding result (K8 (1-403)): no binding (tested: 5 µg/ml COU-1 (P-0279))
binding result (K8 (1-85)): no binding (tested: 5 µg/ml COU-1 (P-0279))
binding result [2]: no binding (tested: 5 µg/ml COU-1 (P-0279))
binding result [3]: no binding (tested: 5 µg/ml COU-1 (P-0279))
binding result [4]: no binding (tested: 5 µg/ml COU-1 (P-0279))
